The target of experiment [1] is T1, Rep68ΔN209 (Adeno-associated virus 2 Srivastava/1982, UniProt P03132).
T1 construct: gene Rep68; residues 210-536, part of linker plus helicase domain; pET-15b, E. coli BL21(DE3)
Format: binding. Conditions: 36 µM protein, 200 mM NaCl, pH 8.0, 20 °C.

The target of experiment [2] is T2, Rep68ΔN200 (Adeno-associated virus 2 Srivastava/1982, UniProt P03132).
T2 construct: gene Rep68; Rep68 without the OBD: full interdomain linker plus helicase domain, to residue 536; start 201 read from the name; pET-15b, E. coli BL21(DE3); also printed Rep68Δ200, RepΔN200
It is filed as binding. Conditions: 36 µM protein, 200 mM NaCl, pH 8.0, 20 °C.

In experiment [3] the target is OBD-linker (residues 1-224) of AAV-2 Rep68 (adeno-associated virus 2 (AAV-2)) (UniProt P03132). The experiment can be described thus: AUC; sedimentation velocity without nucleotide, 40,000 rpm, 20°C, 25 mM Tris-HCl pH 8.0, 200 mM NaCl, 2 mM TCEP; c(s) by sedfit; constants from a global fit (sedphat) to a monomer-dimer model: dimer to monomers.
In experiment [4] the target is Rep68Y224A (adeno-associated virus 2 (AAV-2)) (UniProt P03132). The experiment is described as follows: AUC.
The target of experiment [5] is Rep68ΔN200 (adeno-associated virus 2 (AAV-2)) (UniProt P03132). The experiment is described as follows: AUC; sedimentation velocity without nucleotide, 40,000 rpm, 20°C, 25 mM Tris-HCl pH 8.0, 200 mM NaCl, 2 mM TCEP; c(s) by sedfit; constants from a global fit (sedphat) to a monomer-dimer model: dimer to monomers.
For experiment [6] the target is unchanged. The experiment can be described thus: cross-linking; DMP (dimethyl pimelimidate), 30 fold molar excess, 60 min at room temperature, protein 2 mg/ml, 25 mM HEPES, 200 mM NaCl, pH 8.0; 8% SDS-PAGE.
For experiment [7] the target is unchanged. The experiment can be described thus: AUC.
For experiment [8], the target named is Rep68ΔN209 (adeno-associated virus 2 (AAV-2)) (UniProt P03132). The experiment can be described thus: AUC.
In experiment [9] the target is Rep68ΔN214 (adeno-associated virus 2 (AAV-2)) (UniProt P03132). The experiment is described as follows: AUC.
Experiment [10] has as its target T3, AAV-2 Rep40 (adeno-associated virus 2 (AAV-2), UniProt P03132 225-536). The experiment is described as follows: AUC; sedimentation velocity without nucleotide, 40,000 rpm, 20°C, 25 mM Tris-HCl pH 8.0, 200 mM NaCl, 2 mM TCEP; c(s) by sedfit; constants from a global fit (sedphat) to a monomer-dimer model: dimer to monomers. Conditions: both partners purified.
Experiment [11] addresses T3, AAV-2 Rep40. The description is as above. The conditions noted are these: both partners purified. The source holds these as a separate data set.

Here are results for eight molecules from publication PMC3375335, “The Interdomain Linker of AAV-2 Rep68 Is an Integral Part of Its Oligomerization Domain: Role of a Conserved SF3 Helicase Residue in Oligomerization” (PLoS Pathogens, 2012).

Where two headings read alike, the source gives them in different places.

For `Nc1ncnc2c1ncn2[C@@H]1O[C@H](COP(=O)(O)OP(=O)(O)O)[C@@H](O)[C@H]1O` [ADP], the “sedimentation velocity ultracentrifugation, nucleotide-induced oligomerization” value in [1] (5 mM ADP) was “ADP produces two main populations sedimenting at ∼3S and ∼7S”; in experiment [2] (5 mM ADP), “ADP produces two main populations sedimenting at ∼3S and ∼7S”.

As to `Nc1ncnc2c1ncn2[C@@H]1O[C@H](COP(=O)(O)OP(=O)(O)OP(=O)(O)O)[C@@H](O)[C@H]1O` [ATP], the “sedimentation velocity ultracentrifugation, nucleotide-induced oligomerization” value in experiment [1] (5 mM ATP) was “ATP on the other hand, seems to generate more stable species at ∼7S”; in experiment [2] (5 mM ATP) it was “ATP on the other hand, seems to generate more stable species at ∼7S”.

A word on the stoichiometry N: it is the number of molecules, sites or subunits per partner or assembly. Consider “OBD-linker (residues 1-224) of AAV-2 Rep68 (from UniProt P03132 1-224) (domain or fragment)”, for which the stoichiometry N in [3] was determined as 2.

The molecule “Rep68Y224A (from UniProt P03132 1-536) (natural protein)” yielded a stoichiometry N in experiment [4] of 2.

What is called Kd is the concentration at which binding is half-saturated. In experiment [5], “Rep68ΔN200 (from UniProt P03132 201-536) (domain or fragment)” yielded an equilibrium dissociation constant (Kd) of 79 µM, a logKa of 4.1 and a stoichiometry N of 2. Further, the stoichiometry N in [6] is 2. In addition, in experiment [7], the stoichiometry N was 2.

With “Rep68ΔN209 (from UniProt P03132 210-536) (domain or fragment)”, in experiment [8], the stoichiometry N was determined as 2.

On to “Rep68ΔN214 (from UniProt P03132 215-536) (domain or fragment)”, for which, in [9], the stoichiometry N came out at 2.

B1: AAV-2 Rep40 (natural protein)
chain: MELVGWLVDKGITSEKQWIQEDQASYISFNAASNSRSQIKAALDNAGKIMSLTKTAPDYLVGQQPVEDISSNRIYKILELNGYDPQYAASVFLGWATKKFGKRNTIWLFGPATTGKTNIAEAIAHTVPFYGCVNWTNENFPFNDCVDKMVIWWEEGKMTAKVVESAKAILGGSKVRVDQKCKSSAQIDPTPVIVTSNTNMCAVIDGNSTTFEHQQPLQDRMFKFELTRRLDHDFGKVTKQEVKDFFRWAKDHVVEVEHEFYVKKGGAKKRPAPSDADISEPKRVRESVAQPSTSDAEASINYADRLARGHSL
modifications: Start at 225 follows from the text; the C-terminus of the assayed Rep40 is not given, so full-length Rep40 (to 536) is taken; 225-490 is given only for the crystal structure 1S9H. ATP or ADP added …
For the molecule B1, the “stoichiometry N” value in experiment [10] was found to be 2. The molecule further had a Kd in experiment [11] of 730 µM.
